The term koff denotes the rate constant with which the complex falls apart. The low end stands for slow dissociation, the high end for fast dissociation.

From US20260184758A1 (CUE BIOPHARMA, published 2026) come the findings set out here.

Assay [1] deals with T1, construct 4276 (single-chain TMP: NKG2 peptide …, β2M polypeptide, HLA-E heavy chain polypeptide, Ig Fc …). As to the kind of experiment: BLI (Octet HTX), biotinylated receptor on streptavidin biosensor, bivalent TMP as analyte, kinetic analysis. From the text: (§1) Streptavidin-coated biosensors were used to immobilize biotinylated NKG2A/CD94 heterodimers, or biotinylated NKG2C/CD94 heterodimers.

The target of assay [2] is T1, construct 4276 (single-chain TMP: NKG2 …). As to the kind of experiment: BLI (Octet HTX), biotinylated receptor on streptavidin biosensor, bivalent TMP as analyte, steady state Kd (avidity).
Source text: as §1
(BLI is a label-free optical method that tracks binding on a fibre tip over time.)

B1: biotinylated NKG2A/CD94 heterodimer (receptor)
chain 1: not shown
chain 2: KNSFTKLSIEPAFTPGPNIELQKDSDCCSCQEKWVGYRCNCYFISSEQKTWNESRHLCASQKSSLLQLQNTDELDFMSSSQQFYWIGLSYSEEHTAWLWENGSALSQYLFPSFETFNTKNCIAYNPNGNALDESCEDKNRYICKQQLI
notes: Biotinylated heterodimer immobilized on streptavidin-coated biosensors; also called CD94/NKG2A receptor; NKG2A/CD94 complex
As for B1, the dissociation rate constant (koff) in assay [1] came out at 0.04 s⁻¹. The Kd in assay [2] is 57 nM.

B2: biotinylated NKG2C/CD94 heterodimer (receptor)
chain 1: not shown
chain 2: B1 chain 2
notes: Biotinylated heterodimer immobilized on streptavidin-coated biosensors; also called CD94/NKG2C receptor
Molecule B2 registered a koff in assay [1] of 0.053 s⁻¹. For the same molecule, the Kd in assay [2] was 55 nM.
